Residue numbers refer to the chain shown, from its start.
Tests used:
[1] = target: T1, recombinant His-tagged Der p1 (dust mite, UniProt P08176 99-320, limits assumed); experiment: ELISA, antigen coated on plate
T1 construct: Recombinant His-tagged protein made by the applicant; also called Der p1-His; Der pl; not shown: His tag
T1 sequence (looked up): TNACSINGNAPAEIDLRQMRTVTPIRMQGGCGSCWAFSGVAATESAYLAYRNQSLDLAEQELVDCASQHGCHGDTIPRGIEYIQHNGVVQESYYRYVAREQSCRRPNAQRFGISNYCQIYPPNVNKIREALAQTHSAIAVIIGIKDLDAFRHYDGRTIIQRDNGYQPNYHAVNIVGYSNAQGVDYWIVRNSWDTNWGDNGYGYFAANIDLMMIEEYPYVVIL
Protocol: (§1) 2 microgram per milliliter (μg/mL) target antigen is coated in a 96-well plate and ELISA assay is performed after incubation with candidate VHHs. The binding EC50 of each clone is calculated using Prism GraphPad. The positive control antibody is involved as an internal control.
Isolated VHH clones were further validated by performing an ELISA assay as described in Example 1. The individual binding curves are shown for each candidate in FIGS. 9A-9K.

[2] = Thermostability (Tm, Tonset, Tagg) by Nanotemper DSF; type: physicochemical; parameters: key to Tm2 / Tagg / Tm1 / Tm / Tm3 / Tonset / Tonset ø (mean) / Tagg ø (mean): temperatures in °C; settings: for Tm1: first melting point; for Tm2: second melting point; for Tm3: third melting point; for Tm: single melting point
Protocol: Isolated VHH clones were further validated by performing an ELISA assay as described in Example 1. Metrics of thermostability including melting temperature (Tm), onset temperature (Tonset), and temperature of aggregation (Tagg), were also tested with increasing temperature in the range of 20° C.-95° C. at the speed of 1° C./min. These measurements were performed using a Nanotemper DSF. When applicable, Tm1 refers to the first melting point observed, Tm2 refers to the second melting point observed, etc., Sequence information for the VHH clones and the binding assay results are summarized in Table 3. The individual binding curves are shown for each candidate in FIGS. 3B-3I.
(§2) Isolated VHH clones were further validated by performing an ELISA assay as described in Example 1. Metrics of thermostability including melting temperature (Tm), onset temperature (Tonset), and temperature of aggregation (Tagg), were also tested with increasing temperature in the range of 20° C.-95° C. at the speed of 1° C./min. The individual binding curves are shown for each candidate in FIGS. 5B-5H.
as §2, with “7B-7P.” for “5B-5H.”
The detailed thermostability graphs used to determine the Tm, Tonset, and Tagg are illustrated in FIGS. 19A-19I and raw data is summarized in Table 23. Any subsequent melting points observed (Tm1, Tm2, Tm3, etc.) are separated by commas.

[3] = target: T2, recombinant His-tagged Can f2 (dog (Canis familiaris), UniProt O18874 19-180); experiment: ELISA, antigen coated
T2 construct: also called Can f2-His; recombinant Can f2; not shown: His tag
T2 sequence (looked up): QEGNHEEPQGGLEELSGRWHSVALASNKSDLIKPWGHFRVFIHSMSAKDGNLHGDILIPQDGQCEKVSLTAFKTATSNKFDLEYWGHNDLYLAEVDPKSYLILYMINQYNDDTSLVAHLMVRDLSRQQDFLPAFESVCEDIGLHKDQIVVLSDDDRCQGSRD
Protocol: as §1
as §2, with “(Tₘ),” for “(Tm),”, “(Tₒₙₛₑₜ),” for “(Tonset),”, “7B-7P.” for “5B-5H.”

[4] = Average of two replicates, anti-Fel d1 VHH
[5] = anti-Can f2 VHH, 20° C.-95° C. at 1° C./min
[6] = anti-Can f2 VHH, in °C (unit assumed)

B1: SDAB22129-55-35-46-49-1-G09 (VHH)
VHH: QVKLEESGGGAVQPGGSLRLSCTASGQTFSNYIISWFRQAPGKEREFVVGISKSGGRTYYADSAKGRFTISRDNAKNTVYLQMSSLKPEDTAVYYCAADGLVLTAAAAEYDYWGQGTQVTVSS
notes: Expressed from a prokaryotic vector
[1]
  EC50: 0.154 µg/mL

B2: DAB22110-1-1-C3 (protein)
VHH: QLQLVESGGGLVQPGGSLRLSCEASGFTFKYYTMSWYRQAPGKERELVATITNGDRTNYADSVKGRFTISRDNAKNTLYLQMNSLKPYDTAVYYCNRHLPLLQIWGQGTQVTVSS
[2]; [4]
  Tagg ø (mean): 58.93
  Tonset ø (mean): 58.06
[2]; Average of two replicates, anti-Fel d1 VHH, in °C (unit assumed)
  Tm ø (mean), first melting point (Tm1): 66.50
[2]; Replicate 1
  Tagg: 59.02
  Tonset: 58.17
[2]; Replicate 1, in °C (unit assumed)
  Tm, first melting point (Tm1): 66.50
[2]; Replicate 2
  Tagg: 58.85
  Tonset: 57.94
[2]; Replicate 2, in °C (unit assumed)
  Tm, first melting point (Tm1): 66.51

B3: SDAB22118-3-B02 (VHH)
VHH: AVQLVDSGGGLVQPGGSLRLSCAASGRTFSYYAMGWFRQALGKEREFVAASSRTGRVTNYADSVKGRFTISRDNAKNTVYLQMNSLKPEDTAIYYCAADDRFYGGDNPAFYNSWGQGTQVTVSS
notes: anti-Can f2 alpaca VHH; prokaryotic expression
[3]
  EC50: 0.00759 µg/mL

B4: SDAB22118-189-192-1-C05 (VHH)
VHH: QVQLVESGGGGVQAGGSLRLSCVASQSHFGYNVMGWYRQAPGRQRELVATIISSGGTNYADSVKGRFTISRDNAKNTVHLSMDSLNVEDTAVYFCYAKGVWLGREYWGQGTQVTVSS
notes: as for B3
[3]
  EC50: 0.0325 µg/mL

B5: SDAB22129-55-35-46-49-1-A03 (VHH)
VHH: QVQLVESGGGLVQAGGSLRLSCAVSGRTVSRNVMGWFRQAPGKEREFVAGIGFSGGSTYYADSVKGRFTISRDNAKNTVYLEMNRLQPEDTAVYYCAAPSLPLLTSDLHDYDYWGQGTQVTVSS
notes: as for B1
[1]
  EC50: 0.0291 µg/mL

B6: SDAB22118-1-D08 (VHH)
VHH: EVQLVESGGGLVQPGGSLRLSCVVSGSIFSDNAMGWYRQAPGKQREMVAIISSVGTTNNVDSVNGRFTISRDNAKNTVYLQMNSLKPEDTAVYYCKDFSAPRYWGQGTQVTVSS
notes: as for B3
[3]
  EC50: 0.0486 µg/mL
[2]; [5]
  Tagg: 40.82
[2]; [6]
  Tm1: 38.89
  Tm2: 43.62
  Tm3: 54.69

B7: SDAB22118-3-G05 (VHH)
VHH: AVQLVESGGGLVQAGGSLRLSCAASGRTFNNSVMGWFRQAPGKEREFVAAISRSGAFAHYAESVEGRFTISRDNAKNTVYLQMNSLKPEDTAVYYCAAGAILLPTERRYDYWGQGTQVTVSS
notes: as for B3
[3]
  EC50: 0.149 µg/mL

B8: SDAB22118-1-D05 (VHH)
VHH: B7 VHH with A1Q, R19G, S32Y, A56S, A58T, S63A, E65Q, N77I, L103M, R108T
notes: as for B3
[3]
  EC50: 0.0762 µg/mL
[2]; [5]
  Tagg: 39.54
[2]; [6]
  Tm1: 48.35
  Tm2: 58.58
  Tm3: 64.58

B9: SDAB22118-1-F04 (VHH)
VHH: QVQLVESGGGLVQPGGSLRLSCAYSGFTLDNNVIGWFRQAPGKEREFVAAISRSGAFTHYTESVQGRFTISRDNAKNTVYLQMNSLKPEDTAVYYCAAGAILLPTERRYDYWGQGTQVTVSS
notes: as for B3
[3]
  EC50: 0.0639 µg/mL
[2]; [5]
  Tagg: 48.08
[2]; [6]
  Tm: 58.63

B10: SDAB22118-189-192-1-C10 (VHH)
VHH: EVQLVESGGGLVQAGGSLRLSCAASGRTFSEYIMGWFRQAPGKERVFVSTISKSGAITNYADSVQGRFTISRDNAKNTVYLQMNSLKPEDSAVYYCAAGPLLSPAGRQYDYWGQGTQVTVSS
notes: as for B3
[3]
  EC50: 0.0217 µg/mL

B11: SDAB22129-55-35-46-49-1-A04 (VHH)
VHH: QLQLVESGGGLVQPGGSLRLSCAASGRVYNSWTMAWFRQAPGKEREFVGAFSLLDSGTRYADSLKDRVAISRDDAANTQWLQLSALKPEDTAVYYCAAKSGTIRATSEGQYNYWGQGIQVTVSS
notes: as for B1
[1]
  EC50: 3.41 µg/mL

B12: SDAB22118-189-192-1-H03 (VHH)
VHH: EVQLVESGGGLVQARGSLRLSCAASGRTFNNYAMGWFRQAPGKEREFVAAIASNTGTTYYAGSVKGRFAISRDNAKNTVDLHMNSLKPEDTAVYYCALGPLRLGWWYDSRPYDYWGQGTQVTVSS
notes: as for B3
[3]
  EC50: 0.0575 µg/mL

B13: SDAB22118-2-G01 (VHH)
VHH: AVQLVDSGGGLVQAGDSLRLSCVASGRTFSSYVMGWFRQAPGKERLIVATISKSGSLTHYADSVEGRFTISRDNAKNTVYLQMNSLEPEDTAVYYCTPVSDLTGRRLGSYWGQGTQVTVSS
notes: as for B3
[3]
  EC50: 0.0736 µg/mL
[2]; [5]
  Tagg: 38.93
[2]; [6]
  Tm: 43.71

B14: SDAB22118-189-192-1-E09 (VHH)
VHH: EVQLVESGGGLVQPGGSLRLSCAASGTIFLINRMGWYRQAPGKQRELVATSFTSGNSTMYADSVKGRFTISRDNAKKTVYLQMNSLKPEDTAVYYCKARISRRYGNWDDYWGQGTQVTVSS
notes: as for B3
[3]
  EC50: 0.0571 µg/mL

B15: SDAB22129-55-35-46-49-1-D04 (VHH)
VHH: QLQLVESGGGLVQPGGSLRLSCVISGGTFHPYPIGWFREAPGKEREGVLCINSGGQSEISANSAHDPKYADSVKGRFTISRDNAANTVYLQMNNLEPGDTAVYYCAAPREIYVDPYCPTYAYEYWGQGTQVTVSA
[1]
  EC50: 0.0621 µg/mL

B16: SDAB22118-189-192-1-E08 (VHH)
VHH: AVQLVESGGGLVQPGGSLRLSCVASGSSSRNYAMGWYRQAPGNEREFVAVITSRGYTHYANSVSGRFTISRDHAKDTAYLQMNSLKPEDTAVYYCNTQAGLLPFMTVYDWGTGTQVTVSS
notes: as for B3
[3]
  EC50: 0.00411 µg/mL

B17: SDAB22118-1-B11 (VHH)
VHH: AVQLVESGGGLVQPGGSLRLSCAASGFTFSNYYMSWYRQAPGKEREWVAFITSTGSSTNYANSVKGRFTASRDNAKNTVYLQMNSLKPEDTAVYYCKTRLWGNDYWGKGTLVTVSS
notes: as for B3
[3]
  EC50: 0.164 µg/mL
[2]; [5]
  Tagg: 44.54
[2]; [6]
  Tm: 55.17

B18: SDAB22118-189-192-1-E10 (VHH)
VHH: AVQLVDSGGGLVQTGGSLRLSCAASGTIFSINRMAWYRQAPGKQRELVASIFFSGGITHYADFVKGRFTISRDNAKNTMYLQMNSLKPEDTAVYYCKGVIAPNYRRTSNFQDYWGQGTQVTVSS
notes: as for B3
[3]
  EC50: 0.0427 µg/mL

B19: SDAB22118-3-D01 (VHH)
VHH: QVQLVESGGGLVQAGDSLRLSCAASGRSFSNYVMNWFRQAPGKEREFVAAISRSGRSTFYADSVKGRFTISRDNPKATVYLQMNSLVIEDTAVYFCAAASDITSMRSLAAITSWGQGTQVIVSS
notes: as for B3
[3]
  EC50: 0.429 µg/mL

B20: SDAB22118-3-F08 (VHH)
VHH: QVQLVESGGGLVQPGESLRLSCAASGSIFSIYRMGWYRQAPGEQREHVATVTSGGGTGYADSVKGRFTIYRDNAKNTVYLQMNSLKPEDTAVYSCYAIPKSWSRTSEYSWGQGTQVTVSS
notes: as for B3
[3]
  EC50: 0.0595 µg/mL

From US20240352105A1, “COMPOSITIONS AND METHODS FOR NEUTRALIZING ANTIGENS” (PACAGEN, INC, priority 2023, published 2024)
